This series in a line: total protein half-life in vivo (active degradation + dilution); higher = more stable protein.
The mark [1] stands for this setting: E. coli NCM3722 delta-clpP delta-lon delta-hslV, growth: N-lim chemostat, doubling time 6 h.
Setting [2] is: E. coli NCM3722 delta-clpP, growth: N-lim chemostat, doubling time 6 h.
Where [3] appears, read: E. coli NCM3722 delta-hslV, growth: N-lim chemostat, doubling time 6 h.
Where [4] appears, read: E. coli NCM3722 delta-lon, growth: N-lim chemostat, doubling time 6 h.
Where [5] appears, read: E. coli NCM3722 delta-smpB, growth: N-lim chemostat, doubling time 6 h.
Where [6] appears, read: wild type E. coli NCM3722, growth: C-lim chemostat, doubling time 3 h.
[7] abbreviates: wild type E. coli NCM3722, growth: C-lim chemostat, doubling time 6 h.
[8] abbreviates: wild type E. coli NCM3722, growth: C-lim chemostat, doubling time 12 h.
[9] abbreviates: wild type E. coli NCM3722, growth: N-lim chemostat, doubling time 6 h.
The mark [10] stands for this setting: wild type E. coli NCM3722, growth: N-lim chemostat, doubling time 12 h.
Setting [11] is: wild type E. coli NCM3722, growth: P-lim chemostat, doubling time 6 h.
Where [12] appears, read: wild type E. coli NCM3722, growth: P-lim chemostat, doubling time 12 h.

Here are results for seven sequences from the supplement of paper PMC11246515.

± gives the standard deviation of the averaged measurements.

On to “MDSLNLNKHISGQFNAELESIRTQVMTMGGMVEQQLSDAITAMHNQDSDLAKRVIEGDKNVNMMEVAIDEACVRIIAKRQPTASDLRLVMVISKTIAELERIGDVADKICRTALEKFSQQHQPLLVSLESLGRHTIQMLHDVLDAFARMDIDEAVRIYREDKKVDQEYEGIVRQLMTYMMEDSRTIPSVLTALFCARSIERIGDRCQNICEFIFYYVKGQDFRHVGGDELDKLLAGKDSDK [P0A9K7]”, for which the “total protein half-life in vivo” value stood at 4.61 ± 0.4 h under setting [1]; 4.64 ± 0.5 h under setting [2]; 4.2 ± 0.34 h under setting [3]; 4.81 ± 0.26 h under setting [4]; 4.01 ± 0.1 h under setting [5]; 2.88 ± 0.12 h under setting [6]. Further, the “total protein half-life in vivo” value under setting [7] was 5.04 ± 0.29 h; the “total protein half-life in vivo” value under setting [8] is 9.47 ± 0.65 h; the “total protein half-life in vivo” value under setting [9] was 4.09 ± 0.23 h; the “total protein half-life in vivo” value under setting [10] is 6.41 ± 0.26 h; the “total protein half-life in vivo” value under setting [11] was determined as 5.17 ± 0.13 h; the “total protein half-life in vivo” value under setting [12] turned out to be 10.8 ± 0.029 h.

For “MSNKNVNVRKSQEITFCLLAGILMFMAMMVAGRAEAGVALGATRVIYPAGQKQEQLAVTNNDENSTYLIQSWVENADGVKDGRFIVTPPLFAMKGKKENTLRILDATNNQLPQDRESLFWMNVKAIPSMDKSKLTENTLQLAIISRIKLYYRPAKLALPPDQAAEKLRFRRSANSLTLINPTPYYLTVTELNAGTRVLENALVPPMGESTVKLPSDAGSNITYRTINDYGALTPKMTGVME”, the “total protein half-life in vivo” value under setting [1] was 4.77 h; the “total protein half-life in vivo” value under setting [5] was 5.38 ± 0.18 h; the “total protein half-life in vivo” value under setting [7] came to 5.55 ± 0.66 h; the “total protein half-life in vivo” value under setting [8] was more than 16 h; the “total protein half-life in vivo” value under setting [9] is 7.84 h; the “total protein half-life in vivo” value under setting [10] came out at 14.8 h. For the same sequence, the “total protein half-life in vivo” value runs as follows: under setting [11], 5.67 h; under setting [12], 13.2 ± 3 h.

As to “MSSQYLRIFQQPRSAILLILGFASGLPLALTSGTLQAWMTVENIDLKTIGFFSLVGQAYVFKFLWSPLMDRYTPPFFGRRRGWLLATQILLLVAIAAMGFLEPGTQLRWMAALAVVIAFCSASQDIVFDAWKTDVLPAEERGAGAAISVLGYRLGMLVSGGLALWLADKWLGWQGMYWLMAALLIPCIIATLLAPEPTDTIPVPKTLEQAVVAPLRDFFGRNNAWLILLLIVLYKLGDAFAMSLTTTFLIRGVGFDAGEVGVVNKTLGLLATIVGALYGGILMQRLSLFRALLIFGILQGASNAGYWLLSITDKHLYSMGAAVFFENLCGGMGTSAFVALLMTLCNKSFSATQFALLSALSAVGRVYVGPVAGWFVEAHGWSTFYLFSVAAAVPGLILLLVCRQTLEYTRVNDNFISRTAYPAGYAFAMWTLAAGVSLLAVWLLLLTMDALDLTHFSFLPALLEVGVLVALSGVVLGGLLDYLALRKTHLT [P0AE16]”, the “total protein half-life in vivo” value was found to be 5.97 h under setting [2]; 6.24 h under setting [5]; 4.45 h under setting [7]; 4.64 h under setting [8]; 6.55 h under setting [9]; 12.4 ± 4.7 h under setting [10]. For the same sequence, the “total protein half-life in vivo” value under setting [12] came to 10.3 ± 1.2 h.

With “MIGRLLRGGFMTAIYAYLYIPIIILIVNSFNSSRFGINWQGFTTKWYSLLMNNDSLLQAAQHSLTMAVFSATFATLIGSLTAVALYRYRFRGKPFVSGMLFVVMMSPDIVMAISLLVLFMLLGIQLGFWSLLFSHITFCLPFVVVTVYSRLKGFDVRMLEAAKDLGASEFTILRKIILPLAMPAVAAGWVLSFTLSMDDVVVSSFVTGPSYEILPLKIYSMVKVGVSPEVNALATILLVLSLVMVIASQLIARDKTKGNTGDVK [P0AFK6]”, the “total protein half-life in vivo” value amounted to 5.93 h under setting [1]; 6.54 h under setting [2]; 5.12 h under setting [3]; 5.66 h under setting [4]; 5.65 ± 0.13 h under setting [5]; 3.13 ± 0.76 h under setting [6]. Also, the “total protein half-life in vivo” value is, setting by setting: under setting [8], 14 h; under setting [9], 6.23 ± 0.36 h; under setting [10], 13.3 ± 0.85 h; under setting [11], 6.269 ± 0.021 h; under setting [12], 10.5 ± 2.2 h.

On to “MELIFLGTSAGVPTRTRNVTAILLNLQHPTQSGLWLFDCGEGTQHQLLHTAFNPGKLDKIFISHLHGDHLFGLPGLLCSRSMSGIIQPLTIYGPQGIREFVETALRISGSWTDYPLEIVEIGAGEILDDGLRKVTAYPLEHPLECYGYRIEEHDKPGALNAQALKAAGVPPGPLFQELKAGKTITLEDGRQINGADYLAAPVPGKALAIFGDTGPCDAALDLAKGVDVMVHEATLDITMEAKANSRGHSSTRQAATLAREAGVGKLIITHVSSRYDDKGCQHLLRECRSIFPATELANDFTVFNV [P0A8V0]”, for which the “total protein half-life in vivo” value reads like this: under setting [1], 4.1 ± 0.62 h; under setting [2], 5.44 ± 1 h; under setting [3], 4.51 ± 0.3 h; under setting [4], 5.43 ± 0.51 h; under setting [5], 3.918 ± 0.011 h; under setting [6], 3.01 ± 0.12 h. For the same sequence, the “total protein half-life in vivo” value worked out at 5.64 ± 0.69 h under setting [7]; 10 ± 0.64 h under setting [8]; 3.93 ± 0.28 h under setting [9]; 7.42 ± 0.32 h under setting [10]; 5.54 ± 1.4 h under setting [11]; 11.3 ± 2.1 h under setting [12].

In the case of “MSLSRAAIVDQLKEIVGADRVITDETVLKKNSIDRFRKFPDIHGIYTLPIPAAVVKLGSTEQVSRVLNFMNAHKINGVPRTGASATEGGLETVVENSVVLDGSAMNQIINIDIENMQATAQCGVPLEVLENALREKGYTTGHSPQSKPLAQMGGLVATRSIGQFSTLYGAIEDMVVGLEAVLADGTVTRIKNVPRRAAGPDIRHIIIGNEGALCYITEVTVKIFKFTPENNLFYGYILEDMKTGFNILREIMVEGYRPSIARLYDAEDGTQHFTHFADGKCVLIFMAEGNPRIAKVTGEGIAEIVARYPQCQRVDSKLIETWFNNLNWGPDKVAAERVQILKTGNMGFTTEVSGCWSCIHEIYESVINRIRTEFPHADDITMLGGHSSHSYQNGTNMYFVYDYNVVDCKPEEEIDKYHNPLNKIICEETIRLGGSMVHHHGIGKHRVHWSKLEHGSAWALLEGLKKQFDPNGIMNTGTIYPIEK”, under setting [6], the “total protein half-life in vivo” value was found to be 3.54 h.

With “MKKVTAMLFSMAVGLNAVSMAAKAKASEEQETDVLLIGGGIMSATLGTYLRELEPEWSMTMVERLEGVAQESSNGWNNAGTGHSALMELNYTPQNADGSISIEKAVAINEAFQISRQFWAHQVERGVLRTPRSFINTVPHMSFVWGEDNVNFLRARYAALQQSSLFRGMRYSEDHAQIKEWAPLVMEGRDPQQKVAATRTEIGTDVNYGEITRQLIASLQKKSNFSLQLSSEVRALKRNDDNTWTVTVADLKNGTAQNIRAKFVFIGAGGAALKLLQESGIPEAKDYAGFPVGGQFLVSENPDVVNHHLAKVYGKASVGAPPMSVPHIDTRVLDGKRVVLFGPFATFSTKFLKNGSLWDLMSSTTTSNVMPMMHVGLDNFDLVKYLVSQVMLSEEDRFEALKEYYPQAKKEDWRLWQAGQRVQIIKRDAEKGGVLRLGTEVVSDQQGTIAALLGASPGASTAAPIMLNLLEKVFGDRVSSPQWQATLKAIVPSYGRKLNGDVAATERELQYTSEVLGLNYDKPQAADSTPKPQLKPQPVQKEVADIAL”, the “total protein half-life in vivo” value under setting [1] was determined as 3.81 ± 0.31 h; the “total protein half-life in vivo” value under setting [2] came out at 2.29 ± 0.29 h; the “total protein half-life in vivo” value under setting [3] is 1.1 ± 0.013 h; the “total protein half-life in vivo” value under setting [4] was 0.95 h; the “total protein half-life in vivo” value under setting [5] was 1.15 ± 0.2 h; the “total protein half-life in vivo” value under setting [9] was 1.19 ± 0.58 h. Moreover, under setting [10], the “total protein half-life in vivo” value stood at 1.46 ± 0.27 h.
